Read-outs that look alike come from different tables or passages of the source.
Tests used:
[1] = biological target: chicken skeletal muscle actin (ADP F-actin) (chicken) (UniProt P68139); test: cryo-EM structure; Mg-ADP state: wild-type myosin-15 incubated with 5 mM ADP-Mg for 20 min, applied to 0.6 uM ADP F-actin on the grid; else as for the rigor samples
[2] = biological target: chicken skeletal muscle actin (ADP F-actin) (chicken) (UniProt P68139); test: cryo-EM structure; rigor state: 6 uM myosin-15 treated with apyrase (10 U/ml), applied twice to 0.6 uM ADP F-actin on the grid; KMEI buffer with 0.01% NP-40 substitute; 25°C; helical reconstruction, symmetry expansion and focused classification
F-actin [3] = biological target: F-actin (UniProt P68133); settings: cited from earlier work
F-actin [4] = biological target: F-actin (UniProt P68133); settings: cited from earlier work; remark: listed apart in the source
[5] = biological target: wild-type mouse myosin-15 motor domain with 2 IQ motifs (MD-2IQ), heavy chain (mouse); test: SEC; heavy chain, ELC and RLC co-expressed in Sf9; FLAG M2 resin, MonoQ, then Superdex 200 in 10 mM Mops, 100 mM KCl, 0.1 mM EGTA, pH 7.0; single peak

wild-type mouse myosin-15 motor domain with 2 IQ motifs (MD-2IQ), as the myosin-15:ELC:RLC complex (from UniProt P60661 1-151)
stoichiometry N [1]: 1
stoichiometry N [2]: 1

myosin-15 motor domain (from UniProt Q9QZZ4)
Kd (F-actin [3]): 310 nM
Kd (F-actin [4]): 200 nM

chicken regulatory light chain (RLC; MYL12B) (natural protein)
stoichiometry N [5]: 1

bovine smooth muscle essential light chain (ELC; MYL6) (from UniProt P60661 1-151) (natural protein)
stoichiometry N [5]: 1
